This passage reports average in vivo migration speed of Mx1+aSMA+ P-SSCs under CCL5 administration results from patent US20220096600A1.

In this assay the target is CCR5 on mouse periosteal skeletal stem cells / mouse cells in vivo (mouse) (UniProt P51682). Briefly: cell-based or functional assay.
Chain of UniProt P51682 (P51682 whole entry): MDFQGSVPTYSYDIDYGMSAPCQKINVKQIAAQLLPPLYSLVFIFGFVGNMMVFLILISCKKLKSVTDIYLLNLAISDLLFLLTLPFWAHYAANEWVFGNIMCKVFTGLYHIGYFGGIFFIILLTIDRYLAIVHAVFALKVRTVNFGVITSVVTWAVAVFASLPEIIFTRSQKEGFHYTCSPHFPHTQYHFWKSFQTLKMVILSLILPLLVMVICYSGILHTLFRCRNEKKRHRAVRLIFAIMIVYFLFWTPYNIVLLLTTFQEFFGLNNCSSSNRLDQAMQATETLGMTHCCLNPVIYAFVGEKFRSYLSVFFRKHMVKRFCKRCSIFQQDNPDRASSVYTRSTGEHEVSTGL

CCL5 (ligand) returned an average in vivo migration speed of Mx1+aSMA+ P-SSCs under CCL5 administration of 57 µm/h.
